Publication PMC5080453 (2016)

Target: BMPER_N (Homo sapiens (Human), UniProt Q8N8U9)
Assay: SPR (Tsg on chip); one cell MST

Sequence of BMPER_N (Q8N8U9 40-369): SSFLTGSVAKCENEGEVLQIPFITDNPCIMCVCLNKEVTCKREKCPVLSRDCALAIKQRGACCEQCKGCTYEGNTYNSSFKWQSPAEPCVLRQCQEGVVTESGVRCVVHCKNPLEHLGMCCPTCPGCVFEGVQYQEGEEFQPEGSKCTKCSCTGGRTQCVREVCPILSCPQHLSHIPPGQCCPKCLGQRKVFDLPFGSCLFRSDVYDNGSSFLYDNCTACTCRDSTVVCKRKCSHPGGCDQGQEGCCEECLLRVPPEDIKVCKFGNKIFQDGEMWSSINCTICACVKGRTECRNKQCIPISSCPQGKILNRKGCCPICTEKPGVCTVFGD

B1: TWSG1 (protein)
chain: CNKALCASDVSKCLIQELCQCRPGEGNCSCCKECMLCLGALWDECCDCVGMCNPRNYSDTPPTSKSTVEELHEPIPSLFRALTEGDTQLNWNIVSFPVAEELSHHENLVSFLETVNQPHHQNVSVPSNNVHAPYSSDKEHMCTVVYFDDCMSIHQCKISCESMGASKYRWFHNACCECIGPECIDYGSKTVKCMNCMF
Kd: 0.55 nM
